In paper PMC4072508, “Genome-Wide Prediction and Validation of Peptides That Bind Human Prosurvival Bcl-2 Proteins” (PLoS Computational Biology, 2014):

T1: Bfl-1, Q16548
T1 chain: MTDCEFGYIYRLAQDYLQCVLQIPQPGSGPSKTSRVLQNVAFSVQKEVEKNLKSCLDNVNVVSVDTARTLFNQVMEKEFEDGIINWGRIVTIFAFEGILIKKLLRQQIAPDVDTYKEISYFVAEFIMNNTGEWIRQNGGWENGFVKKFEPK

T2: Mcl-1, Q07820
T2 chain: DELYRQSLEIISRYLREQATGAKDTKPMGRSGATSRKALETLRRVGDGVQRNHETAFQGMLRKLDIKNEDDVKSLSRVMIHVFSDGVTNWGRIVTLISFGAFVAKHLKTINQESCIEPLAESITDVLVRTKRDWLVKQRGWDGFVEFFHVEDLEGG


How the values were obtained:
Experiment in all cases: peptide SPOT array, c-Myc-tagged receptor at 1 uM or 100 nM, anti-c-Myc-Cy3
Bfl-1, Q16548 = target: T1, Bfl-1, Q16548
Bcl-xL, Q07817 = target: Bcl-xL, Q07817
Mcl-1, Q07820 = target: T2, Mcl-1, Q07820

Sequence of Bcl-xL, Q07817 (Q07817 1-209): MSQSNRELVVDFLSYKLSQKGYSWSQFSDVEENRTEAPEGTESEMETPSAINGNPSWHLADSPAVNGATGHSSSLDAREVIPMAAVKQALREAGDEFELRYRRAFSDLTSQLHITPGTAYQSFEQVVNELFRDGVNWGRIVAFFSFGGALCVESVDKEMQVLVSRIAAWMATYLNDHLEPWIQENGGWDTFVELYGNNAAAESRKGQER

Binder | SPOT signal as a fraction of Bim BH3's signal on the same receptor and array (Bfl-1, Q16548) | SPOT signal as a fraction of Bim BH3's signal on the same receptor and array (Bcl-xL, Q07817) | SPOT signal as a fraction of Bim BH3's signal on the same receptor and array (Mcl-1, Q07820)
ELLYGIWSNCLGLISDSFHMFFDSTA [SLC30A7] | 0.06 | 0.07 | 0.06
SSTMGQVGRQDAIIGDDINRRYDSEF [BAK1] | 0.01 | 0.02 | 0.01
VLAPVQLGKWLVLFLDEINLPDMDKY [DYNC1H1] | 0.07 | 0.08 | 0.08
PYLSKHRADRMRRLGDFLNQESFDLA [SMPD2] | 0.69 | 1.3 | 0.71
TAAAAYRGAHDRGRGRTVYNTFRAAA [XXXX] | 1.4 | 2.54 | 1.43
RMIVDCVSSHDKKTGDGAKTFIIFLC [BBS10] | 0.09 | 0.17 | 0.08
LWAAQRYGREDRRMSDEFVDSFKKGL [BAD] | 0.3 | 0.53 | 0.51
LNLLMISVAFLRVILDQLEKLCDSLL [SLC38A8] | 0.05 | 0.07 | 0.04
THFLDEEVKLDKKMGDHLTNLHRLGG [FTL] | 0.03 | 0.07 | 0.05
ELDEDDLEAELDALLDELLADEDSSY | 0.03 | 0.06 | 0.03
GGRVKLVHSADIQLGDSLSHKGNEFW | 0.24 | 0.2 | 0.23
WVKSIRICTPMGKLGDSCHPLTRKVP [PROK2] | 0.56 | 1.07 | 0.81
MPYMEAVIHEDQRFGDVIPMSLARRV [CYP2A6] | 0.04 | 0.07 | 0.07
NNNMDVESRTMATMLDTLASRGLLDA [SEC16A] | 0.05 | 0.04 | 0.03
PKKKMTLSEIYQWILDNFPYYREAGS [FOXJ3] | 0.1 | 0.15 | 0.16
ELDEDDLEAEDDALGDELLADEDSSY | 0.03 | 0.06 | 0.03
PSECETLGSNLGHNLDLLNENNILAK [ZFP90] | 0.04 | 0.1 | 0.04
KKLKNLEGNELQRHLDEFLLDLGHHE [FUT8] | 0.04 | 0.08 | 0.05
MRSQLGKATADAIMGDKLWWADQVSE [LRP1] | 0.12 | 0.17 | 0.16
FGEYSGISENDILVGDDFWIPETSFI [ROS1] | 0.04 | 0.07 | 0.04
LDFTFVCPTEIIAFLDRLEEFRSINT [PRDX4] | 0.04 | 0.05 | 0.05
FTCKNKFCKPLFWVLDSVNDCGDNSD [ST14] | 0.12 | 0.23 | 0.27
YFKLFRASGDMRTNGDNYLYEIQLSS [IGF2R] | 0.47 | 0.41 | 0.43
GGRVKLVHSALIQLLDSLSHKGNEFW | 0.23 | 0.28 | 0.23
EAVTDGLKRALRSFLNALGNCILDKD [RAD52] | 0.04 | 0.08 | 0.08
